Measurements: paper PMC10016340 (Chemical Science, 2023)

B1: Ubiquitin carboxyl-terminal hydrolase isozyme L1 (UCH-L1) (protein)
chain: MQLKPMEINPEMLNKVLSRLGVAGQWRFVDVLGLEEESLGSVPAPACALLLLFPLTAQHENFRKKQIEELKGQEVSPKVYFMKQTIGNSCGTIGLIHAVANNQDKLGFEDGSVLKQFLSETEKMSPEDRAKCFEKNEAIQAAHDAVAQEGQCRVDDKVNFHFILFNNVDGHLYELDGRMPFPVNHGASSEDTLLKDAAKVCREFTEREQGEVRFSAVALCKAA
B2: NAD-dependent protein deacetylase sirtuin-2 (protein)
chain: MAEPDPSHPLETQAGKVQEAQDSDSDSEGGAAGGEADMDFLRNLFSQTLSLGSQKERLLDELTLEGVARYMQSERCRRVICLVGAGISTSAGIPDFRSPSTGLYDNLEKYHLPYPEAIFEISYFKKHPEPFFALAKELYPGQFKPTICHYFMRLLKDKGLLLRCYTQNIDTLERIAGLEQEDLVEAHGTFYTSHCVSASCRHEYPLSWMKEKIFSEVTPKCEDCQSLVKPDIVFFGESLPARFFSCMQSDFLKVDLLLVMGTSLQVQPFASLISKAPLSTPRLLINKEKAGQSDPFLGMIMGLGGGMDFDSKKAYRDVAWLGECDQGCLALAELLGWKKELEDLVRREHASIDAQSGAGVPNPSTSASPKKSPPPAKDEARTTEREKPQ

Experiments:
[1] = molecular target: α-syn monomers, oligomers or fibrils (Homo sapiens, UniProt P37840); assay: Dot-blot binding assay; conditions: 0.05–0.4 μg immobilized protein, 33 μg mL^−1 α-syn monomer, oligomer or fibril
α-syn = α-syn (Homo sapiens, UniProt P37840); assay: ThT aggregation kinetics of α-syn; type: biochemical; conditions: 20 μM α-syn, 5 μM ligand; α-syn alone half-time 44 h
αSOs-Alexa488 = αSOs-Alexa488 (Homo sapiens, UniProt P37840); assay: FIDA binding of αSOs to neuronal proteins in solution; conditions: up to 150 μM ligand, in solution

Row | Molecule | Binding preference for α-syn species in dot blot [1] | Reduction of half-time of aggregation (α-syn) [fold] | Change in Rh of αSOs-Alexa488 on titration with ligand (αSOs-Alexa488)
1 | B1 | bound most strongly to fibrils | 3 | little change in Rh
2 | B2 | – | – | little change in Rh
